These results are taken from paper PMC3424545 (Nucleic Acids Research, 2012).

For this test, the target named is T1, His6-tagged Mcm10 (human, UniProt Q7L590 1-875).
T1 sequence (looked up): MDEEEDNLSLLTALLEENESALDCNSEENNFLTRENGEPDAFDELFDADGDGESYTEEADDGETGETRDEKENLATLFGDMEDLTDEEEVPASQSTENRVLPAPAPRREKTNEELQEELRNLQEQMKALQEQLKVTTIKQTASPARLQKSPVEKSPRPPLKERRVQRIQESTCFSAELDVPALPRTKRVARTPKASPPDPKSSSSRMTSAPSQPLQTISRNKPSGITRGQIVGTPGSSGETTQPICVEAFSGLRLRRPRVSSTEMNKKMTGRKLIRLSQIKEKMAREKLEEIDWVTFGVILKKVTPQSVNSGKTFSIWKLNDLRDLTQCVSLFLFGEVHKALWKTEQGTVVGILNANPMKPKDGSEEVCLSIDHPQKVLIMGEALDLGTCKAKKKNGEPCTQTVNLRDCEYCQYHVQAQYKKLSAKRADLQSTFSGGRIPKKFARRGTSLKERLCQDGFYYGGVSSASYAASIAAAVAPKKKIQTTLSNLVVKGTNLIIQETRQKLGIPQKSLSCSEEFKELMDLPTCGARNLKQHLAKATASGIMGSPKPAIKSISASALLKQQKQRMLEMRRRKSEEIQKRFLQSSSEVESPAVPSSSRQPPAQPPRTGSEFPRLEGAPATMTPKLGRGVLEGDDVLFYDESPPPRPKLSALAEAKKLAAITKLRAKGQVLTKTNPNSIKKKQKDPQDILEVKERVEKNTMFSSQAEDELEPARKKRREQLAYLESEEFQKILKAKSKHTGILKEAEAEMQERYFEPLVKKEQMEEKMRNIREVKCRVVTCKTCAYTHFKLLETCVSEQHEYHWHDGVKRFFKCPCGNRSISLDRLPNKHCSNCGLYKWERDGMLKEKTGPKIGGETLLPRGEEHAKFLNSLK
Briefly: pull-down.

B1: GST-tagged C-terminus VprBP (864-1507) (domain or fragment)
chain: not shown
B1: the binding result was “binds”.
